# Data from PMC12368060 (Communications Biology, 2025).
# Square brackets hold non-standard residues; d marks the D form. Ends that are not written are not given here. * marks the point of attachment. FITC = O=C1OC2(c3ccc(O)cc3Oc3cc(O)ccc32)c2ccc(NC(=S)*)cc21; pS = N[C@@H](COP(=O)(O)O)C(=O)O; Ahx = NCCCCCC(=O)O
# Experiments:
# GST-fused LC3B [1] = target: T1, GST-fused LC3B (UniProt Q9GZQ8 1-120); experiment: microfluidic diffusional sizing
# GST-fused LC3B [2] = target: T1, GST-fused LC3B; experiment: SPR
Binder,Kd (GST-fused LC3B [1]) [µM],stoichiometry N (GST-fused LC3B [1]),Kd (GST-fused LC3B [2]) [µM],koff (GST-fused LC3B [2]) [s⁻¹],kon (GST-fused LC3B [2]) [M⁻¹ s⁻¹],fold increase in Kd against pS177 alone (GST-fused LC3B [1]) [fold],fold increase in binding affinity against pS177 alone (GST-fused LC3B [1]) [fold]
{FITC-Ahx}-NSSGSSEDSFVEIRMAE [FITC-Ahx OPTN LIR peptide 169-185 (WT)],67.1,1,63.5,0.0351,550,,
{FITC-Ahx}-NSSGSSEDSWVEIRMAE [FITC-Ahx OPTN LIR peptide 169-185 (F178W)],19.1,1,,,,,
{FITC-Ahx}-NSSGSSED[pS]AVEIRMAE [FITC-Ahx OPTN LIR peptide 169-185 (pS177 F178A)],,,> 100,,,7,
{FITC-Ahx}-NSSGSSED[pS]WVEIRMAE [FITC-Ahx OPTN LIR peptide 169-185 (pS177 F178W)],,1,,,,,7
{FITC-Ahx}-NSSGSSEDEFVEIRMAE [FITC-Ahx OPTN LIR peptide 169-185 (S177E)],40.2,1,,,,,
{FITC-Ahx}-NSSGSSEDDFVEIRMAE [FITC-Ahx OPTN LIR peptide 169-185 (S177D)],36.7,1,,,,,
{FITC-Ahx}-NSSGSSED[pS]FVEIRAAE [FITC-Ahx OPTN LIR peptide 169-185 (pS177 M183A)],,1,36.7,,,,
{FITC-Ahx}-NSSGSSED[pS]FVEIRMAE [FITC-Ahx OPTN LIR peptide 169-185 (pS177)],14.9,1,21.2,0.377,17800,,
